Laboratory results: publication PMC2174279 (The Journal of Cell Biology, 2000)

Experiments:
Test in all cases: two-hybrid
[1] = molecular target: T1, peptide PRP1 (QPDHPPPSPP), LexA bait
T1 peptide: QPDHPPPSPP

[2] = molecular target: T2, peptide PRP2 (PPPYQAPHPP), LexA bait
T2 peptide: PPPYQAPHPP

[3] = molecular target: T3, peptide PBS2 (NKPLPPLPVA), LexA bait (S. cerevisiae)
T3 peptide: NKPLPPLPVA

Binder | LacZ expression (two-hybrid) [1] | LacZ expression (two-hybrid) [2] | LacZ expression (two-hybrid) [3]
Myo5p-SH3-AD (1020-1219) (domain or fragment) NKAATRRSVPNPASTLTASQSNARPSPPTAATRATPAATPAAAAMGSGRQANIPPPPPPPPPSSKPKEPMFEAAYDFPGSGSPSELPLKKGDVIYITREEPSGWSLGKLLDGSKEGWVPTAYMKPHSGNNNIPTPPQNRDVPKPVLNSVQHDNTSANVIPAAAQASLGDGLANALAARANKMRLESDDEEANEDEEEDDW | 406 Miller units | 255 Miller units | –
SH3 domain of Sho1p (176-367) (domain or fragment) not shown | – | – | 190 Miller units
